Experimental data published in paper PMC6386767, “Characterization of recombinant fructose-1,6-bisphosphatase gene mutations: evidence of inhibition/activation of FBPase protein by gene mutation” (Bioscience Reports, 2019).

Target: T1, pig kidney FBPase L56A (Sus scrofa, UniProt P00636, L57A)
T1 construct: His6 (C); made in house; host or cells: Escherichia coli BL21 (DE3)
T1 sequence (P00636 1-338 L57A): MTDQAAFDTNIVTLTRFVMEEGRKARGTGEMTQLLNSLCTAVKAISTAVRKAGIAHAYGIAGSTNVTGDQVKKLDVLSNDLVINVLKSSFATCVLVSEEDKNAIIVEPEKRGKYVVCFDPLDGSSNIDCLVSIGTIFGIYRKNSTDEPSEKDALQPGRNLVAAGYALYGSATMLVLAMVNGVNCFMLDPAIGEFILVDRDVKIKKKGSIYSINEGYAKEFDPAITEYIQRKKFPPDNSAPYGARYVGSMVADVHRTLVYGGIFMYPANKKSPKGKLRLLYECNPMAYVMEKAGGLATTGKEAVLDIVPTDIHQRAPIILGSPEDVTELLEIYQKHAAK
Experiment: Differential scanning fluorimetry, L56A mutant
Assay type: binding
Conditions: enzyme L56A 5 µM, no ligand
Experimental: Differential scanning fluorimetry (DSF) assays were designed and implemented to run on WT and each mutant for the purpose of determining relative stabilities by melting point, and to detect structural changes in the enzymes upon ligand binding. Thermal shift assays were performed with a Light Cycler 96 System Real-Time PCR machine (Roche) using Sypro-Orange dye (Invitrogen) and thermal ramping (0.25°C per min between 20 and 85°C). […] Data were processed using the Boltzmann equation to generate sigmoidal denaturation curves, and average Tm/ΔTm values were calculated as previously described using GraphPad Prism software package.

B1: L56A: pig kidney FBPase mutant Leu^56 to alanine, near PFE tetramer interface site (protein, UniProt P00636 2-338, looked up, variant L56A)
Fructose-1,6-bisphosphatase 1: TDQAAFDTNIVTLTRFVMEEGRKARGTGEMTQLLNSLCTAVKAISTAVRKAGIAHAYGIAGSTNVTGDQVKKLDVLSNDLVINVLKSSFATCVLVSEEDKNAIIVEPEKRGKYVVCFDPLDGSSNIDCLVSIGTIFGIYRKNSTDEPSEKDALQPGRNLVAAGYALYGSATMLVLAMVNGVNCFMLDPAIGEFILVDRDVKIKKKGSIYSINEGYAKEFDPAITEYIQRKKFPPDNSAPYGARYVGSMVADVHRTLVYGGIFMYPANKKSPKGKLRLLYECNPMAYVMEKAGGLATTGKEAVLDIVPTDIHQRAPIILGSPEDVTELLEIYQKHAAK
With B1 the “melting point, No Ligand” value was 56.0 (± 3.00) °C.
